B1: CHMP4C (parent)
chain: SSKSRAAPSPQEALVRLRETEEML
B2: SLC35F2 (parent)
chain: FVAFALCMFCLYSFMPLVIKVTSA

Variants of: B1
Assay: protein stability index of a GFP-peptide fusion (GPS, HEK-293T) (PSI 1-6); higher = more stable
Settings: c terminus: a fixed tail appended
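Further: lentivirally expressed fusions sorted by FACS into six bins by GFP to DsRed ratio, PSI derived from sequencing read proportions per bin multiplied by bin number.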

Protein stability index of substitutions, site by site:
S1: E 1.3 | H 1.97 | N 2.38 | V 3.02
S2: A 2.44 | C 2.38 | E 1.86 | T 1.78
K3: A 1.97 | D 3.17 | T 1.79 | W 1.74
S4: D 1.4 | T 2.58
R5: C 1.78 | D 2.36 | G 1.3 | L 1.48 | T 2.17
A6: D 1.81 | F 2.83 | H 1.28 | I 2.15 | K 1.8 | N 1.61 | R 1.96 | Y 4.65
A7: K 1.45 | M 3.21 | P 1.03 | Q 2.32 | T 4.48 | V 2.56
P8: C 1.87 | L 2.46 | N 2.54 | Q 1.95 | V 4 | W 2.56
S9: A 2.38 | C 1.54 | D 1.51 | I 3.22 | R 3.19 | T 1.94 | V 3.85
P10: C 3.05 | E 3.41 | H 4.21 | K 4.6 | N 4.79 | Q 4.58 | R 4.01 | S 3.85 | T 4.26 | V 1.81 | W 1.67 | Y 2.99
Q11: A 2.68 | C 1.78 | F 1.01 | K 1.9 | P 3.7 | T 1.16 | V 3.06
E12: C 2.96 | F 2.75 | G 2.23 | H 3.06 | K 4.3 | L 3.27 | M 2.05 | S 2.06 | V 2.81 | W 2.67
A13: C 1.82 | D 5.58 | G 3.34 | H 3.99 | K 4.47 | L 2.06 | Q 4.8 | W 3.33 | Y 2.3
L14: A 3.39 | C 2.06 | D 4.96 | F 4.77 | H 4.46 | I 2.32 | K 4.46 | M 2.41 | P 5.2 | R 2.92 | S 4.33 | T 4.6 | V 3 | W 1.42 | Y 2.49
V15: D 1.85 | K 2.48 | M 2.17 | P 4.34 | Q 3.07 | S 2.18
R16: D 1.98 | E 2.24 | G 3.79 | H 1.63 | Q 2.49 | T 4.39 | W 2.45 | Y 2.22
L17: A 4.71 | E 5.68 | F 4.28 | G 5.31 | H 4.79 | I 1.76 | N 4.59 | R 5.53 | S 5.01 | T 5.6 | Y 4.4
R18: A 1.51 | D 5.46 | E 4.89 | F 1.83 | H 5.68 | K 2.15 | L 4.8 | N 1.8 | P 5.12 | Q 2.57 | S 2.17 | Y 2.45
E19: A 2.6 | C 2.66 | G 2.44 | H 2.9 | I 4.1 | K 3.19 | N 2.27 | P 4.63 | Q 1 | R 3.52 | S 3.01 | W 2.36 | Y 1.97
T20: C 4.19 | D 2.08 | I 3.27 | P 5.12 | Q 4.83 | V 3.14 | W 3.45
E21: A 4.28 | D 4 | F 3.21 | G 3.63 | I 2.83 | M 4.23 | N 4.49 | Q 3.95 | S 4.09 | T 2.81 | W 2.39 | Y 2.3
E22: D 2.14 | F 2.05 | G 2.44 | I 2.92 | M 1.82 | P 4.66 | Q 2.31 | T 3.01 | V 2.84 | W 1.71
M23: A 2.07 | D 4.26 | E 2.08 | F 2.24 | H 4.34 | K 2.15 | P 4.44 | Q 2.38 | S 3.95 | T 3.55 | W 1.55 | Y 1.41
L24: D 5.37 | E 5.94 | F 4.25 | G 4.97 | H 4.37 | I 2.52 | M 3.11 | N 5.32 | Q 5.69 | R 4.22 | S 4.53 | T 3.92 | W 3.92 | Y 3.64

Variants of: B2
Assay: as above
Settings: c terminus: a fixed tail appended

Protein stability index of substitutions, site by site:
F1: A 2.36 | C 2.46 | D 2.71 | E 3.64 | G 3.04 | H 3.02 | I 3.76 | K 2.5 | L 3.61 | M 2.59 | N 3.06 | P 2.61 | Q 3.03 | R 4.03 | T 2.5 | V 2.51 | W 2.65 | Y 2.99
V2: A 2.72 | C 2.5 | D 2.14 | E 2.27 | F 2.7 | G 3.29 | I 4.37 | K 2.97 | L 3.45 | N 3.7 | P 3.21 | Q 2.65 | R 2.37 | S 2.71 | T 4.03 | W 2.44
A3: C 2.05 | D 2.37 | E 2.62 | F 2.64 | H 2.44 | I 2.84 | K 2.42 | L 2.38 | M 2.65 | N 2.43 | P 1.98 | R 3.31 | S 2.81 | T 2.21 | V 3.02 | W 2.55 | Y 3.12
F4: A 2.54 | C 2.52 | D 4.88 | E 3.18 | G 2.87 | H 2.26 | I 2.65 | K 2.01 | L 4.33 | M 2.64 | N 4.39 | P 4.46 | Q 2.23 | R 3.58 | T 3.63 | V 3.37 | W 3.22 | Y 2.33
A5: C 2.67 | D 3.05 | E 2.48 | F 1.59 | H 2.52 | I 3.68 | K 2.58 | L 2.47 | M 2.38 | N 1.4 | P 2.62 | R 2.84 | S 3.44 | V 2.75 | W 3.11 | Y 2.58
L6: A 2.8 | C 2.33 | D 3.24 | E 2.43 | F 2.84 | G 2.14 | H 3.22 | I 2.5 | K 2.38 | N 3.13 | P 2.79 | Q 3.48 | S 3.91 | T 2.16 | V 2.13 | W 3.52 | Y 3.21
C7: A 2.45 | D 3.08 | E 2.19 | F 2.43 | H 3.27 | I 2.35 | K 2.46 | L 2.99 | M 3.58 | N 4.12 | P 1.95 | Q 3.11 | R 3.23 | S 3.35 | T 2.6 | V 3.59 | W 2.19 | Y 2.85
M8: A 3.8 | C 2.4 | D 2.12 | E 3.62 | F 2.67 | G 1.97 | H 2.8 | I 2.88 | K 2.51 | L 2.67

From the supplement of paper PMC10567573
